B1: Aurora kinase B (Homo sapiens), Q96GD4 (parent)
chain: MAQKENSYPWPYGRQTAPSGLSTLPQRVLRKEPVTPSALVLMSRSNVQPTAAPGQKVMENSSGTPDILTRHFTIDDFEIGRPLGKGKFGNVYLAREKKSHFIVALKVLFKSQIEKEGVEHQLRREIEIQAHLHHPNILRLYNYFYDRRRIYLILEYAPRGELYKELQKSCTFDEQRTATIMEELADALMYCHGKKVIHRDIKPENLLLGLKGELKIADFGWSVHAPSLRRKTMCGTLDYLPPEMIEGRMHNEKVDLWCIGVLCYELLVGNPPFESASHNETYRRIVKVDLKFPASVPMGAQDLISKLLRHNPSERLPLAQVSAHPWVRANSRRVLPPSALQSVA

Variants of: B1
Details: with 2aaa_human PPP2R1A

effect of a mutation on the interaction | Variant
decreasing interaction strength | MAQKENSYPWPYGRQTAPSGLSTLPQRVLRKEPVTPSALVLMSRSNVQPTAAPGQKVMENSSGTPDILTRHFTIDDFEIGRPLGKGKFGNVYLAREKKSHFIVALKVLFKSQIEKEGVEHQLRREIEIQAHLHHPNILRLYNYFYDRRRIYLILEYAPRGELYKELQKSCTFDEQRTATIMEELADALMYCHGKKVIHRDIKPENLLLGLKGELQIADFGWSVHAPSLRRKTMCGTLDYLPPEMIEGRMHNEKVDLWCIGVLCYELLVGNPPFESASHNETYRRIVKVDLKFPASVPMGAQDLISKLLRHNPSERLPLAQVSAHPWVRANSRRVLPPSALQSVA [K215Q]
